B1: Composite Human anti-CLEVER-1 antibody VH2/VK2 (antibody, human IgG4, V domains shown)
VH: QVTLKESGPTLVKPTQTLTLTCSFSGFSLSTSGMGIGWIRQPSGKALEWLAHIWWDDDKRYNPALKSRLTISKDTSKNQVVLTMTNMDPVDTATYYCARHYGYDPYYAMDYWGQGTLVTVSS
VL: QIVLTQSPGTLSLSPGERATMSCTASSSVSSSYLHWYQQKPGKAPKLCIYRTSNLASGVPSRFSGSGSGTDYTLTISSLQPEDFATYYCHQYHRSPPTFGQGTKLEIK
B2: Composite Human anti-CLEVER-1 antibody VH1/VK5 (antibody, human IgG4, V domains shown)
VH: QVTLKESGPTIVKPTQTLTLTCSFSGFSLNTSGMGIGWIRQPSGKALEWLAHIWWDDDKRYNPALKSRLTISKDTSKNQVVLTMTNMDPVDTATYYCARHYGYDPYYAMDYWGQGTSVTVSS
VL: EIVLTQSPGTLSLSPGERATLSCTASSSVSSSYLHWYQQKPGKAPKLLIYRTSNLASGVPSRFSGSGSGTDYTLTISSLQPEDFATYYCHQYHRSPPTFGQGTKLEIK
B3: Composite Human anti-CLEVER-1 antibody VH2/VK3 (antibody, human IgG4, V domains shown)
VH: QVTLKESGPTLVKPTQTLTLTCSFSGFSLSTSGMGIGWIRQPSGKALEWLAHIWWDDDKRYNPALKSRLTISKDTSKNQVVLTMTNMDPVDTATYYCARHYGYDPYYAMDYWGQGTLVTVSS
VL: EIVLTQSPGTLSLSPGERATMSCTASSSVSSSYLHWYQQKPGKAPKLCIYRTSNLASGVPSRFSGSGSGTDYTLTISSLQPEDFATYYCHQYHRSPPTFGQGTKLEIK
B4: Composite Human anti-CLEVER-1 antibody VH2/VK4 (antibody, human IgG4, V domains shown)
VH: QVTLKESGPTLVKPTQTLTLTCSFSGFSLSTSGMGIGWIRQPSGKALEWLAHIWWDDDKRYNPALKSRLTISKDTSKNQVVLTMTNMDPVDTATYYCARHYGYDPYYAMDYWGQGTLVTVSS
VL: QIVLTQSPGILSLSPGERATMSCTASSSVSSSYLHWYQQKPGKAPKLLIYRTSNLASGVPSRFSGSGSGTDYTLTISSLQAEDFATYYCHQYHRSPPTFGQGTKLEIK
B5: Composite Human anti-CLEVER-1 antibody VH3/VK2 (antibody, human IgG4, V domains shown)
VH: QVTLKESGPTLVKPTQTLTLTCSFSGFSLSTSGMGIGWIRQPPGKALEWLAHIWWDDDKRYNPALKSRLTISKDTSKNQVVLTMTNMDPVDTATYYCARHYGYDPYYAMDYWGQGTLVTVSS
VL: QIVLTQSPGTLSLSPGERATMSCTASSSVSSSYLHWYQQKPGKAPKLCIYRTSNLASGVPSRFSGSGSGTDYTLTISSLQPEDFATYYCHQYHRSPPTFGQGTKLEIK
B6: Composite Human anti-CLEVER-1 antibody VH1/VK4 (antibody, human IgG4, V domains shown)
VH: QVTLKESGPTIVKPTQTLTLTCSFSGFSLNTSGMGIGWIRQPSGKALEWLAHIWWDDDKRYNPALKSRLTISKDTSKNQVVLTMTNMDPVDTATYYCARHYGYDPYYAMDYWGQGTSVTVSS
VL: QIVLTQSPGILSLSPGERATMSCTASSSVSSSYLHWYQQKPGKAPKLLIYRTSNLASGVPSRFSGSGSGTDYTLTISSLQAEDFATYYCHQYHRSPPTFGQGTKLEIK
B7: Composite Human anti-CLEVER-1 antibody VH4/VK1 (antibody, human IgG4, V domains shown)
VH: QVTLKESGPTLVKPTQTLTLTCTFSGFSLSTSGMGIGWIRQPPGKALEWLAHIWWDDDKRYNPALKSRLTISKDTSKNQVVLTMTNMDPVDTATYYCARHYGYDPYYAMDYWGQGTLVTVSS
VL: QIVLTQSPGILSLSPGERATMSCTASSSVSSSYLHWYQQKPGKAPKLCIYRTSNLASGVPSRFSGSGSGTDYTLTISSLQAEDFATYYCHQYHRSPPTFGQGTKLEIK
B8: Composite Human anti-CLEVER-1 antibody VH2/VK1 (antibody, human IgG4, V domains shown)
VH: QVTLKESGPTLVKPTQTLTLTCSFSGFSLSTSGMGIGWIRQPSGKALEWLAHIWWDDDKRYNPALKSRLTISKDTSKNQVVLTMTNMDPVDTATYYCARHYGYDPYYAMDYWGQGTLVTVSS
VL: QIVLTQSPGILSLSPGERATMSCTASSSVSSSYLHWYQQKPGKAPKLCIYRTSNLASGVPSRFSGSGSGTDYTLTISSLQAEDFATYYCHQYHRSPPTFGQGTKLEIK
B9: Composite Human anti-CLEVER-1 antibody VH1/VK3 (antibody, human IgG4, V domains shown)
VH: QVTLKESGPTIVKPTQTLTLTCSFSGFSLNTSGMGIGWIRQPSGKALEWLAHIWWDDDKRYNPALKSRLTISKDTSKNQVVLTMTNMDPVDTATYYCARHYGYDPYYAMDYWGQGTSVTVSS
VL: EIVLTQSPGTLSLSPGERATMSCTASSSVSSSYLHWYQQKPGKAPKLCIYRTSNLASGVPSRFSGSGSGTDYTLTISSLQPEDFATYYCHQYHRSPPTFGQGTKLEIK
B10: Composite Human anti-CLEVER-1 antibody VH2/VK5 (antibody, human IgG4, V domains shown)
VH: QVTLKESGPTLVKPTQTLTLTCSFSGFSLSTSGMGIGWIRQPSGKALEWLAHIWWDDDKRYNPALKSRLTISKDTSKNQVVLTMTNMDPVDTATYYCARHYGYDPYYAMDYWGQGTLVTVSS
VL: EIVLTQSPGTLSLSPGERATLSCTASSSVSSSYLHWYQQKPGKAPKLLIYRTSNLASGVPSRFSGSGSGTDYTLTISSLQPEDFATYYCHQYHRSPPTFGQGTKLEIK
notes: Named as a potential lead
B11: Composite Human anti-CLEVER-1 antibody VH4/VK2 (antibody, human IgG4, V domains shown)
VH: QVTLKESGPTLVKPTQTLTLTCTFSGFSLSTSGMGIGWIRQPPGKALEWLAHIWWDDDKRYNPALKSRLTISKDTSKNQVVLTMTNMDPVDTATYYCARHYGYDPYYAMDYWGQGTLVTVSS
VL: QIVLTQSPGTLSLSPGERATMSCTASSSVSSSYLHWYQQKPGKAPKLCIYRTSNLASGVPSRFSGSGSGTDYTLTISSLQPEDFATYYCHQYHRSPPTFGQGTKLEIK
B12: Composite Human anti-CLEVER-1 antibody VH3/VK4 (antibody, human IgG4, V domains shown)
VH: QVTLKESGPTLVKPTQTLTLTCSFSGFSLSTSGMGIGWIRQPPGKALEWLAHIWWDDDKRYNPALKSRLTISKDTSKNQVVLTMTNMDPVDTATYYCARHYGYDPYYAMDYWGQGTLVTVSS
VL: QIVLTQSPGILSLSPGERATMSCTASSSVSSSYLHWYQQKPGKAPKLLIYRTSNLASGVPSRFSGSGSGTDYTLTISSLQAEDFATYYCHQYHRSPPTFGQGTKLEIK
B13: Composite Human anti-CLEVER-1 antibody VH1/VK1 (antibody, human IgG4, V domains shown)
VH: QVTLKESGPTIVKPTQTLTLTCSFSGFSLNTSGMGIGWIRQPSGKALEWLAHIWWDDDKRYNPALKSRLTISKDTSKNQVVLTMTNMDPVDTATYYCARHYGYDPYYAMDYWGQGTSVTVSS
VL: QIVLTQSPGILSLSPGERATMSCTASSSVSSSYLHWYQQKPGKAPKLCIYRTSNLASGVPSRFSGSGSGTDYTLTISSLQAEDFATYYCHQYHRSPPTFGQGTKLEIK
B14: Composite Human anti-CLEVER-1 antibody VH4/VK4 (antibody, human IgG4, V domains shown)
VH: QVTLKESGPTLVKPTQTLTLTCTFSGFSLSTSGMGIGWIRQPPGKALEWLAHIWWDDDKRYNPALKSRLTISKDTSKNQVVLTMTNMDPVDTATYYCARHYGYDPYYAMDYWGQGTLVTVSS
VL: QIVLTQSPGILSLSPGERATMSCTASSSVSSSYLHWYQQKPGKAPKLLIYRTSNLASGVPSRFSGSGSGTDYTLTISSLQAEDFATYYCHQYHRSPPTFGQGTKLEIK
B15: Composite Human anti-CLEVER-1 antibody VH4/VK5 (antibody, human IgG4, V domains shown)
VH: QVTLKESGPTLVKPTQTLTLTCTFSGFSLSTSGMGIGWIRQPPGKALEWLAHIWWDDDKRYNPALKSRLTISKDTSKNQVVLTMTNMDPVDTATYYCARHYGYDPYYAMDYWGQGTLVTVSS
VL: EIVLTQSPGTLSLSPGERATLSCTASSSVSSSYLHWYQQKPGKAPKLLIYRTSNLASGVPSRFSGSGSGTDYTLTISSLQPEDFATYYCHQYHRSPPTFGQGTKLEIK
notes: Named as a potential lead
B16: Composite Human anti-CLEVER-1 antibody VH3/VK1 (antibody, human IgG4, V domains shown)
VH: QVTLKESGPTLVKPTQTLTLTCSFSGFSLSTSGMGIGWIRQPPGKALEWLAHIWWDDDKRYNPALKSRLTISKDTSKNQVVLTMTNMDPVDTATYYCARHYGYDPYYAMDYWGQGTLVTVSS
VL: QIVLTQSPGILSLSPGERATMSCTASSSVSSSYLHWYQQKPGKAPKLCIYRTSNLASGVPSRFSGSGSGTDYTLTISSLQAEDFATYYCHQYHRSPPTFGQGTKLEIK
B17: Composite Human anti-CLEVER-1 antibody VH1/VK2 (antibody, human IgG4, V domains shown)
VH: QVTLKESGPTIVKPTQTLTLTCSFSGFSLNTSGMGIGWIRQPSGKALEWLAHIWWDDDKRYNPALKSRLTISKDTSKNQVVLTMTNMDPVDTATYYCARHYGYDPYYAMDYWGQGTSVTVSS
VL: QIVLTQSPGTLSLSPGERATMSCTASSSVSSSYLHWYQQKPGKAPKLCIYRTSNLASGVPSRFSGSGSGTDYTLTISSLQPEDFATYYCHQYHRSPPTFGQGTKLEIK

Molecular target: T1, CLEVER-1 coated on the ELISA plate (competition ELISA, Examples 5 and 10) (human, UniProt Q9NY15 26-1027, limits assumed)
T1 construct: Coated at 1 ug/ml in PBS; also called human Clever-1
T1 sequence (looked up): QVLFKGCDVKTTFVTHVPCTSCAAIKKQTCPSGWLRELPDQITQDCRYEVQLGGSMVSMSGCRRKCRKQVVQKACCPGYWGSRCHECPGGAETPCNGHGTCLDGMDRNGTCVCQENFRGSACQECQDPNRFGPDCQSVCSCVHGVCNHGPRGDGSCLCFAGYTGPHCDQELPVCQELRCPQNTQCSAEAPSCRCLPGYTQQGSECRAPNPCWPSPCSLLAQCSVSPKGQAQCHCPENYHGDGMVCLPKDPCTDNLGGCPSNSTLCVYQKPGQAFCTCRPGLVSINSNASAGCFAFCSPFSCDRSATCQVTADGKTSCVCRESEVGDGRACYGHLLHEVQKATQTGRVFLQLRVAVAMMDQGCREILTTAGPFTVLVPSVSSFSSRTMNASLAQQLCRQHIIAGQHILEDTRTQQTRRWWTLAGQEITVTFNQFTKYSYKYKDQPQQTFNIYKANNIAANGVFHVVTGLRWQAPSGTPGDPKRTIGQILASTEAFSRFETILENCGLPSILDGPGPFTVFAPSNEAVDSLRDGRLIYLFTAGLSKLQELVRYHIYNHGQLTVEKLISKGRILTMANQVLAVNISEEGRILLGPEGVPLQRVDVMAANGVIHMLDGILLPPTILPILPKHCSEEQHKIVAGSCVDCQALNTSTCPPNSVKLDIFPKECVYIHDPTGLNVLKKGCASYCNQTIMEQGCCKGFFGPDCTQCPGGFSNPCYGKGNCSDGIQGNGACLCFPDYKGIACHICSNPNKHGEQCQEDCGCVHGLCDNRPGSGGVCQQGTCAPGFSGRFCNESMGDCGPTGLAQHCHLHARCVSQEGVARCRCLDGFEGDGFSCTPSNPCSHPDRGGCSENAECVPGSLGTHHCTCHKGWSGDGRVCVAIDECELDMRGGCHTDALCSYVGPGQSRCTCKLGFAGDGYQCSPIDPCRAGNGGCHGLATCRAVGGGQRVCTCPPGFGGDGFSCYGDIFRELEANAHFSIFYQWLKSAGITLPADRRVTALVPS
Assay: competition ELISA on coated CLEVER-1 against biotinylated mouse 3-372
Procedure: These were incubated for 1 hour at room temperature on a 96 well Immulon maxisorp plate (Fisher Cat. No. DIS-971-030J) precoated with 1 μg/ml CLEVER-1. […] The reaction was stopped with 3M HCl, absorbance read at 450 nm on a Dynex Technologies MRX TC II plate reader and the binding curves plotted. IC50 values for each antibody were calculated and these were normalized to the IC50 of the chimera which was included on each respective ELISA plate.

Binder | Relative IC50
B1 | 0.95 relative to the chimera on the same plate
B2 | 1.13 relative to the chimera on the same plate
B3 | 0.7 relative to the chimera on the same plate
B4 | 0.79 relative to the chimera on the same plate
B5 | 0.51 relative to the chimera on the same plate
B6 | 1.17 relative to the chimera on the same plate
B7 | 1.86 relative to the chimera on the same plate
B8 | 0.82 relative to the chimera on the same plate
B9 | 1.63 relative to the chimera on the same plate
B10 | 0.52 relative to the chimera on the same plate
B11 | 0.9 relative to the chimera on the same plate
B12 | 0.47 relative to the chimera on the same plate
B13 | 0.84 relative to the chimera on the same plate
B14 | 1.2 relative to the chimera on the same plate
B15 | 0.46 relative to the chimera on the same plate
B16 | 0.76 relative to the chimera on the same plate
B17 | 1.37 relative to the chimera on the same plate
